Experiment: label from the status in PepcDB records
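Note: failed if final PepcDB status was selected cloned or expressed and not failed if soluble or beyond.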

Sequence	protein production
HITLNYLSKTLGMHQTINVILPEDKSYFDTNENAKPLKTMLLLHGLSSDTSSYMRYTSIERYANTHQLAVVMPNADHSFYSNMAYGHSYYDYILEVYDYVHQILPLSKKREDNFIAGHSMGGYGAIKFALTQSYRFSKAAMLSAPYDVSMIGQYQWYDFTPEAIVGNTQHVAGTSFDPYYLVEQAIDNGQALPQLYITCGTEDELYQGNIDFVNYLDEKGIPYQFKKAPGNHDYAFWDKAIEDVIDRF	failed
MDKIRSLRFFIATLEGGSFAAAAKAYGTDPSTVSKAIHRLESDLGIQLFQRSTRQIRLTEAVRRYANTARFVLDELAACEDSLKSHNDALSGLLKINVPVSYGRLYIRPLLKEFCRRYPSITIDIHYDDAYVDIIEQGIDVSIRSGVVQDSQLIVRQLSPIDFIICGSQDYLTRHGVPSGPDAFNDHSWVRFRFKQTGKLLPIRMPEPDGTSEYNPERNFIVNDGESMAELCAEGLGLTQIPHFIARDWLKVGRLVPIFPSMRQAGNGVYLLYANREYVPARVRVFIDFITQAIQDMDETPFHTWAETLPIYQPNQGD	failed
GVKCEPFEALTVDVEDAHQGGVMEELGRRKGDLQDMQPDGRGRTRLEYIIPARGLIGFQNEFLTLTRGTGLMSHIFHEYAPLREGSIGERRNGVLISQDNGDAVAYALWKLQDRGRMFVSPGEPLYEGMI	failed
MTLKGTAERWGWMSQALHWLIAVLILGLGIGGLIMGKLPKTPNYFWVYTAHKSIGISVLALAVLRLFWRLYAGAPKPIAGTPVWQERVANATHIMLYVLIFTIPLAGWLYDSARGLRTFYWFGLFEMPALVSPNETIRGVALEIHKLSFWALIGLVVLHAGAAFHHHLIQRDATLARMLPRNWFSSKS	failed
MKSRIIVRTSFDAAHAVKVGDHWEDVHGHTFFLEVAIEGEIKNGYVMDFLELRKIVEEITKELDHRNLNNIFENPTTENIALWIGERIRDKLPPYVKLKRVVLWEGKDNGVELEW	not failed
MCIGFCIDRLDKGFLYTCHSTICRLVAQNMKKSLIHIGDGLGLSLLIEPTGSKSWRFRYRFGGKPKMISFGAYPLVSLAEARKKRDEARKQVLDGINPSEHRKAQKLNLMSESENTFETIAREWHTMKSVCWSVGYASDIMEAFRNDIFPYVGKRSIAEVKPLELLNVMRKMEKRGALEKMKKVRQRCSEVFRYAIATGRAEYNPAADLSSALEVHQSHHFPFLKADEIPDFLRALEGYTGSKLVRIATKLLLITGVRTIELRAALWSEFDLGNAIWEIPEERMKKRRAHLVPLSTQALDLLNELKIMTGNYRYVFPGRNNPNKPMSEASINQVIKRIGFGGEVTGHGFRHMLSTILHEEGFDSSFIEIQLAHVDRNSIRGTYNHAQYLEKRRHMMQYYSDYVIGKDF	failed
MLIRAIPFVFVILWASGFVGARFGLQYAEPATLLSIRMAFNVLLFLVLVAVLRRRLPTGTDFWHSCVVGALIHGFYLGGTYFAIALGMPAGLSSLLVGIQPILTAALLVAFVREEFKPSQWLGLALGFVGIAMVLMGKMEWQSEQHKVLAIGLCLLALVGITLGTLYQKKHCQQVDMVGGATVQYLAALIMFLPVAMQFETMQVQWELEFILTVLWLVVVLSCVAILLLLYMVRNGASSSVASVFYLVPPTTAIQAWLAFGESFDWMGISGFVLAATAVYLVVKKPDLTIKKAIKTEYT	failed
MSASRILTAFGLTGALVTAGVAQAGIVYIPEGSADSVLMVESETGQPVGRISGVEAVHGLAGAPGTPYLVAGSYSEIDPESAAQTARPEGVSQADHNAHHAKPAKAAMPTDKGLSLVSVIDAGTGEVVRRIEVPGAVHHTAVSPDGRWAMATHPGGDGVSLIDLSTLEYAGFIATGPMPNYVSFSPDNSRAYVSNAGNGTLSELDLDRRILSRNLLAGEGPEHFALSRDGATVFVADAEAGRVLRLDIASGAETASYGFGAELHGLDLSEREDTLFVAVKGADQVAAVDLASGAVRLQELAPAPYHLTVADGGETLFVSSREASMVWAVDQVSLRVTAEIGIEGEGHQMVVLP	failed
MVDFKVVLSDPKTGLSYKIDAAGAAAGALLGKKIGTEVDGAPFGMSGYKITITGGSDKTGTPARPDLPGNGRRGLLISDGFGFNATHNGERRRKSQRGNEIAADFVQVNAKITVYGEKPVTEIFAAAAE	failed
MDFVPSLPTLIAFTIAILLLAVTPGPDMTLWISRSLREGRAAGFMTLVGTNIGITVHTMLVAFGVAALIVASPTAFMILKTGGAAYLVWLAIQAIRKGSDFVMVKSTGEKAQASLKSALLNGIWVNLLNPKVIIFFMTFLPQFVSATDPHVTGKLIFLGIWSIIVALPIGIGIVVTADILSAWLQRNRKVLRGLDYTIAGVFSLFAVKIFFTQTR	failed
MERIALPRRTLGARRREVPVTPDTLLPLLAVLPPLAYGLLALFCARAWFGRQRPGPGHTPPVTILKPVKGMDAESFENFASFCRQEYGGPWQMLFACASADDPVIPVIRRLMAEFPDRDIDLVVDGTIHGPNYKVSNLINAFPRARHDILIVCDSDIRVTSDYLGEVTAPFADPAVGLVTSLYRSPGVRGAATALEAMGFTVEMVPNVMVAQRLEGLSFALGASMAVRRTALESIGGFPALTHYLADDYQLGNKIHRAGWRLELSDCFVESVMHRENLTTVLSRQLRWCRTMRASRPGGYLGSGITQPVPLACLALLVSGCSAAGWGAVILLYLTRALVAVTFSRRYLRDGIFPRWLWLLPLRDILAFATWALSFAGNRVRWRGNLFRLLPGGKIVEIG	failed
MKRVNQNLYQLLRRIYWRLPLPEETKELLVGFARRFLRGMKKALAEPVTTASSASVSREKILQEYANQILAIPRKSGNEYVEISSSSYQRKEGDAKILAYYLPQFHPTKENDMWWGKGVTEWNNVSRAMPQYVGHYQPRLPGELGYYDLRILDNMRRQVELAQMYGIYGFCFYYYWFDGKRLLDKPLDMFLEAKTIDFPFSLCWANESWTRRFDGSCGEILVKQSETVESYIAFINSVVPYMRDSRYIRMNGKPIFTIYRPSFIPECASTITAWREHCVKAGIGDIYIIGIKEHTWDVNLIELGFDAQSEFHPGTLFKHCVDISSQINYMQDFGGIVLDYRDIVEHKKYFLYNHPKLHRAAMPMWDNSARRDNKGMIFEGASPDLYERWLTDILLEAKNREDLEDHYIFINAWNEWGEGAYLEPDKKYGYAYLNATRQAIEGVRS	failed
MLTEVSDTRIAHKKFGLFYPSVSRPSIFVEGEDRKNFLQGIASQDILKQDEKSLSYSFFLNPKARILFDAWCGNFEDKIALFPPAGTREEFVNHLKKYLFFRTKAKITDMSDHFREIRLVGPETISVLLSLFDNNFSGSSFRMLKNGGYVLIHPTSFQHNLDVGLQADLFIPIDQFETTQKSLEDFTSNKGGVLLDESSYLAYLTEKGIPLFPSELNDSFFPAEAGLDSVGVSYNKGCYVGQEPVTRLKFQGHLNRSLAGFRLEGGPFPKMEFPVTLFNPKDGNEAGILTRTSSSDILGSGIGLGYIKRNFSENGTELLLPDAQLVRVHSLPFV	not failed
MEVNKPLPLISIIVPIYNIAEYASECIQSLINQTYKNIEIILVDDGSTDHSPAICDEFAEQDERIKVIHKRNGGLSDARNAGLDVATGEYIGFVDGDDWVDEDMYETLYHLIYEHQADISICTHYTELPNRTKVKYKSKKTKIFSSQKAIATLIEDKIIQNYIWEKLFKRELFTELRFPVGWSFEDIALCYKVFHKARKIVLLQTPKYHYRTRPGSITNSTRNPLKEFQYLQALHEQFQFAAENNIKVRKPKKLVQKTFHFINHIIILPPSSLKKKYINDAFEIAHTYDYLRNWEIGVAATLRRFFVYNYFNAYASVIITYRKYIPARTVKSTTEFFFVRRVATSLATAMRSILYILEHHHHHH	failed
MFDTKIAVILRDDLAVWQKLNVTAFLMSGIVAQTGEIIGEPYRDGAGNVYNPLSIQPIVVMATDQEALRKIHQRSLERDITTSLYIEEMFATGHDAANRQVFSHFSPDTAKVVGMALRADRKIVDKITKGAKLHA	not failed
MTTLSTKQKQFLKGLAHHLNPVVMLGGNGLTEGVLAEIENALNHHELIKVKVAGADRETKQLIINAIVRETKAAQVQTIGHILVLYRPSEEAKIQLPRK	not failed
SEEDNRAPQLWRKTLTAPAPFADETNCQCQAPHEKLTIAQARLGTPADRPVRVYADGIFDLFHSGHARALMQAKTLFPNSYLLVGVCSDDLTHKFKGFTVMNEAERYEALRHCRYVDEVIRDAPWTLTPEFLEKHKIDFVAHDDIPYSSAGSDDVYKHIKEAGMFVPTQRTEGISTSDIITRIVRDYDVYARRNLQRGYTAKELNVSFINEKRYRFQNQVDKMKEKVKNVEERSKEFVNRVEEKSHDLIQKWEEKSREFIGNFLELFGPDGAWKQMFQERSSRMLQALSPKQSPVSSPTRSRSPSRSPSPTFSWLPLKTSPPSSPKAASASISSMSEGDEDEK	failed
MGGIARLYGDSALAHFSQAHVCVVGVGGVGSWAVEALARTGIGRLTLIDLDNVAESNVNRQLHALTGDFGKAKVTALRERITQINPQCEVFEIEDFVTEDNLPEYFGKGFDFVIDAIDQVRVKAAMAAYFVERKQPFVLSGGAGGQKNPALIQTADLSRVTHDPLLANLRYTLRKRYGFSRDTKANMRVPCVYSTENIVPPQSREACSADAAPQGLSCAGYGASMLVTASFGLYCAQAAVEHIADKKLEHHHHHH	failed
MMTQPMPGKPAEDAENELDIRGLFRTLWAGKLWIIGMGLAFALIALAYTFFARQEWSSTAITDRPTVNMLGGYYSQQQFLRNLDVRSNMASADQPSVMDEAYKEFVMQLASWDTRREFWLQTDYYKQRMVGNSKADAALLDEMINNIQFIPGDFTRAVNDSVKLIAETAPDANNLLRQYVAFASQRAASHLNDELKGAWAARTIQMKAQVKRQEEVAKAIYDRRMNSIEQALKIAEQHNISRSATDVPAEELPDSEMFLLGRPMLQARLENLQAVGPAFDLDYDQNRAMLNTLNVGPTLDPRFQTYRYLRTPEEPVKRDSPRRAFLMIMWGIVGGLIGAGVALTRRCSK	not failed
MAGFSSLIPRTLLKRAVSSATRNLTAPLASISAARNLFIGGGCDENYGEPGVFSHSNGIRKYNTVGNAGALTGPFHHLLGVNQTNKPAFLRVQSMSYQFVADSHSSPKRIVKNEDEEDFSDSSKKGNAENPRKHQIGENIPKKDKIKFLVNTLLDIEDNKEAVYGALDAWVAWERNFPIASLKIVIASLEKEHQWHRMVQVIKWILSKGQGNTMGTYGQLIRALDMDRRAEEAHVIWRKKVGNDLHSVPWQLCLQMMRIYFRNNMLQELVKLFKDLESYDRKPPDKHIVQTVADAYELLGMLDEKERVVTKYSHLLLGTPSDDKPSRSSRKKKKPELRIPEATTEGAVDAAKAEIQEERKENLDNHQESEAATEKQFEHGA	failed
MLAQKNTNKKPFGNTLTNILCKDKKKKNLDPQISSLVSLVDNMDITQEKKDKIKNLSLKYINSRDVKEKNESINELQKYSNNEECKEQMDSYLMHLRMQNDIKCLKRKNLWNNIGINSITLSLIIIMIMIACMFAIYSTAQYIYVPASFLLIFIIYIVARYFPDMKIGFKKLKTKLNTFFQNKKQITK	failed
RIVLRREFEGNGILDGIGKKIEEGDYDIVEYNSDKWYQIHKYYSGIDNSLKGVYINISTPPELLRGKIRYLDLEIDIAIRDSEIALLDEDELNKKSIYMPSS	failed
MLKTLAVANYRSINKLVIPLGRLNLVTGANGSGKSNLYRALRLLAETAQGGVVNALAKEGGLESTYWAGPEQISRRMSQGEVPIQGGPRKAARRLQLGFAGEDFGYAISLGLPDSSGHFMLPGHSSPIASRFTLDPWIKRESIWGGPLYRSASALVDRQGPMIRARAGRQWEVLAQHTSSGDSLFDRVGNLSSSPEVLHLREQIRGWRFYDHLRTDSQAPARRPQLGTRTPVLHHDGRDLAAALQTIIEVGDQQALHETISDAFPESRLEIDAVPGGLFGVQFYQEGLLRPLSAAELSDGTLRYLLLVAALLTPRPPTLMVLNEPETSLHPDLLPALARLIIRASQQCQVWVVSHARRLIAALQQDPECNCIVLEKQLGQTGIVGQRMLDEPAWNWPDLEHHHHHH	failed

From a protein production outcome set (Wang et al. 2014)
